In patent US7314724B2, “Therapeutic applications of laminin and laminin-derived protein fragments” (University of Washington, priority 1996, dated 2008):

Assays:
[1] = target: T1, pre-formed Aβ (1-40) amyloid fibrils (Homo sapiens, UniProt P05067); experiment: Thioflavin T fluorometry, dissolution of pre-formed Aβ (1-40) amyloid fibrils; type: biochemical; conditions: for dissolution of pre-formed Aβ amyloid fibrils: 25 μM fibrillized Aβ, 4 day incubation; for dose dependence of dissolution of pre-formed Aβ amyloid fibrils, in words: 16-125 nM laminin, 4 day incubation (FIG. 5)
T1 construct: 2 μg of Aβ (1-40)(Bachem Inc., Torrance, Calif. USA; Lot #WM365); purchased Bachem Inc., Torrance, Calif; Lot #WM365
Protocol: For this study, 1 mg of Aβ (1-40)(Bachem Inc., Torrance, Calif., USA; Lot #WM365) was dissolved in 1.0 ml of double distilled water (1 mg/ml solution) and then incubated at 37° C. for 1 week. 25 μM of fibrillized Aβ was then incubated at 37° C. in the presence or absence of laminin (from EHS tumor; Sigma Chemical Company, St. Louis, Mo., USA) at concentrations of 125 nM, 63 nM, 31 nM and 16 nM containing 150 mM Tris HCl, 10 mM NaCl, pH 7.0. Following a 4 day incubation, 50 μl aliquots were added to 1.2 ml of 100 μM Thioflavin T (Sigma Chemical Co., St. Louis, Mo.) in 50 mM NaPO4 (pH 6.0) for fluorometry readings as described in example 2.

biotinylated Aβ (1-40) = target: T2, biotinylated Aβ (1-40) (Homo sapiens, UniProt P05067); experiment: Aβ ligand blot of undigested and V8-, trypsin- or elastase-digested EHS laminin; type: binding; conditions: 2 μM biotinylated Aβ (1-40), SDS-PAGE under non-reducing conditions
T2 construct: Aβ (1-40) was biotinylated according to the manufacturer's protocol (Pierce, Rockford, Ill.)
Protocol: For these experiments, Aβ (1-40) was biotinylated according to the manufacturer's protocol (Pierce, Rockford, Ill.). For the ligand studies, intact EHS laminin was left undigested, or digested with V8 or trypsin (Sigma Chemical Company, St. Louis, Mo., USA). More specifically, 2 μg of trypsin or V8 protease in 2 μl of 50 MM Tris-HCl buffer (pH 8.0) were added to 50 μl of laminin (50 μg)(in the same buffer) and incubated overnight at 37° C. The next day, 10 μl of protease-digested laminin (or undigested laminin) was mixed with 10 μl of 2× sodium dodecyl sulfate polyacrylamide gel electrophoresis (SDS-PAGE) sample buffer, and heated for 5 minutes in a boiling water bath. SDS-PAGE was performed according to the method of Laemmli (Laemmli, U.K. Nature 227:680-685, 1970), or according to the method of Schägger and Jagow (Schägger and Jagow, Anal. Biochem. 166:368-379, 1987) using a Mini-Protean II electrophoresis system (Biorad) with precast 4-15% Tris-Glycine or 10-20% tricine polyacrylamide gels, respectively, and under non-reducing conditions. Electrophoresis occurred at 200V for 45 minutes along with pre-stained molecular weight standards. After SDS-PAGE (10-20% tricine or 4-15% Tris-Glycine gels) was performed as described above, the separated laminin and its fragments (total protein of 10 μg/lane) were transferred to polyvinylidine difluoride membrane (PVDF) using a Mini transblot electrophoresis transfer cell (Biorad, Hercules, Calif., U.S.A.). Electrotransfer was performed at 100V for 2 hours. Following transfer, membranes were rinsed with methanol and dried. The fragment(s) of laminin involved in binding to Aβ were then detected by using biotinylated-Aβ (1-40), as described above. Blots were probed for 2 hours with 2 μM biotinylated Aβ (1-40) in TTBS. The membranes were then rinsed three times (10 seconds each) with TTBS, probed for 30 minutes with strepavidin alkaline phosphatase conjugate (Vectastain), rinsed again (as described above), and followed by the addition of an alkaline phosphatase substrate solution (Vectastain). Following color development, the reaction was stopped by flushing the membranes with double distilled water. In the next set of studies, we determined whether small fragment(s) of laminin generated by elastase digestion would bind to Aβ. […] For these experiments, Aβ (1-40) was biotinylated according to the manufacturer's protocol (Pierce, Rockford, Ill.). For the ligand studies, intact EHS laminin was left undigested, or digested with elastase (Sigma Chemical Company, St. Louis, Mo., USA). For elastase digestion, 2 μg of elastase in 8 μl of 50 mM Tris-HCl buffer (pH 8.0) was added to 50 μl of laminin (50 μg)(in the same buffer) and incubated for 1.5 hours or 2.5 hours at 37° C. In addition, as a control, 2 μg of elastase in 50 μl of 50 mM Tris-HCl buffer (pH 8.0) was incubated for 2.5 hours at 37° C. Following the appropriate incubation times as described above, 10 μl of each of the above incubations were mixed with 10 μl of 2× SDS-PAGE electrophoresis sample buffer, and heated for 5 minutes in a boiling water bath. SDS-PAGE was performed according to the method of Laemmli (Laemmli, Nature 227:680-685, 1970) using a Mini-Protean II electrophoresis system with precast 4-15% Tris-Glycine polyacrylamide gels, and under non-reducing conditions. Electrophoresis occurred at 200V for 45 minutes along with pre-stained molecular weight standards (Biorad). After SDS-PAGE was performed as described above, the separated laminin fragments were transferred to PVDF using a Mini transblot electrophoresis transfer cell (Millipore, Bedford, Mass., U.S.A.). Electrotransfer was performed at 100V for 2 hours. Following transfer, membranes were rinsed with methanol, dried and cut into two equal parts which were used for Aβ ligand blotting, or Coomassie blue staining and subsequent amino acid sequencing. The fragment(s) of laminin involved in binding to Aβ were then detected by using biotinylated-Aβ (1-40), as described above. […]

T1 sequence (P05067 672-711 limits assumed): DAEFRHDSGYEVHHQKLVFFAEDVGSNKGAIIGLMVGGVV
T2 sequence (P05067 672-711 limits assumed): as above

**Q.** How did the “dissolution of pre-formed Aβ amyloid fibrils” value ([1]; 16 nM laminin) turn out when “laminin: Engelbreth-Holm-Swarm (EHS) mouse tumor laminin (Sigma); 850 kDa basement membrane glycoprotein of A, B1 and B2 chains” was run?
**A.** 25%

**Q.** And the “dissolution of pre-formed Aβ amyloid fibrils” value ([1]; 31 nM laminin)?
**A.** 28%

**Q.** What about the “dissolution of pre-formed Aβ amyloid fibrils” value ([1]; 63 nM laminin) of the same substance?
**A.** 39%

**Q.** What about the “dissolution of pre-formed Aβ amyloid fibrils” value ([1]; 125 nM laminin) of the same substance?
**A.** 41%

**Q.** What about the “dose dependence of dissolution of pre-formed Aβ amyloid fibrils, in words” value [1] of the same substance?
**A.** dissolution of pre-formed Alzheimer's disease amyloid fibrils in a dose-dependent manner

**Q.** And the “dose dependence of dissolution of pre-formed Aβ amyloid fibrils, in words” value ([1]; listed as Laminin)?
**A.** dose-dependent manner

**Q.** And the “interaction with biotinylated Aβ (1-40) on ligand blot, in words” value (biotinylated Aβ (1-40))?
**A.** most prominent Aβ-interaction
